Assay results as given in paper PMC9367764, “Functional Versatility of the Human 2-Oxoadipate Dehydrogenase in the L-Lysine Degradation Pathway toward Its Non-Cognate Substrate 2-Oxopimelic Acid” (International Journal of Molecular Sciences, 2022).
Positions count from the first letter of the chain named. Names and notes keep the numbering of the source.

How the values were obtained:
[1] = target: E2o 1-173 di-domain, labelled with N-(1-pyrene) maleimide (human); test: other fluorescence titration; pyrene-labelled E2o 1-173 di-domain titrated by Arg715Cys E1a; 25 °C; 100 mM HEPES (pH 7.5), 0.15 M NaCl, 1% glycerol
[2] = target: human dihydrolipoamide succinyltransferase (E2o) (human) (UniProt P36957); test: pull-down; co-purification of E1a or Arg715Cys E1a with E2o and E3 (assembly into OADHc) on immobilized metal affinity chromatography; relative amounts from band intensities in PAGE; which component was held by the resin is not stated
Chain of human dihydrolipoamide succinyltransferase (E2o) (human) (P36957 68-453): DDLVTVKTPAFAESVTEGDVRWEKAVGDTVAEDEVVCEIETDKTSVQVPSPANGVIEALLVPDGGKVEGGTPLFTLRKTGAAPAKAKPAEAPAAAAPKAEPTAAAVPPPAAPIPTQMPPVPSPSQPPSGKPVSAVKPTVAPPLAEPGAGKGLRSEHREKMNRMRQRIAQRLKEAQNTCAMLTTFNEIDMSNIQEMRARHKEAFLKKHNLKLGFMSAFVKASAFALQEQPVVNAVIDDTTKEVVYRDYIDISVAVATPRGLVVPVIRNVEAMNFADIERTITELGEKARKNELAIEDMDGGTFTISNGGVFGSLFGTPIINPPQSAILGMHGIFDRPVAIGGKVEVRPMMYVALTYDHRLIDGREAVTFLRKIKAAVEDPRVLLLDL

[3] = target: human dihydrolipoamide dehydrogenase (E3) (human) (UniProt P09622); test: as above
Chain of human dihydrolipoamide dehydrogenase (E3) (human) (P09622 36-509): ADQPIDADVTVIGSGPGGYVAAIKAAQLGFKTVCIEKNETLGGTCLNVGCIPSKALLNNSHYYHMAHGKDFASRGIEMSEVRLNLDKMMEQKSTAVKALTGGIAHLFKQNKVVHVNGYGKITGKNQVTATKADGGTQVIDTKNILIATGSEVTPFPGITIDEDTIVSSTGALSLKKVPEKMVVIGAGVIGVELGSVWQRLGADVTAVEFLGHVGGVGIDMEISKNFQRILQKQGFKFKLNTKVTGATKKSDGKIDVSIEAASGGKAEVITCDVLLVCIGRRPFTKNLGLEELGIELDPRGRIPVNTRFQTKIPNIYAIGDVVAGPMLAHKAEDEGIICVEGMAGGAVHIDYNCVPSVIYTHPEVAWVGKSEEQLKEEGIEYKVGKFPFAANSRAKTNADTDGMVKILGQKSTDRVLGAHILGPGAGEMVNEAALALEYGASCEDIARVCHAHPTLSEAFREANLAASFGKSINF

[4] = target: E2o di-domain (linker and part of core domain) (Homo sapiens) (UniProt P36957); test: fluorescence; conditions: cited from earlier work
Chain of E2o di-domain (linker and part of core domain) (Homo sapiens) (P36957 68-219): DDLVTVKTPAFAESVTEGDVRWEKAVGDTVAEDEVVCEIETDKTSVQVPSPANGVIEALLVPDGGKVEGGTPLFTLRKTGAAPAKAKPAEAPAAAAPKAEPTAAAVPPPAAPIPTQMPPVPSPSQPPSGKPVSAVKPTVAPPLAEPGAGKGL

[5] = substrate: O=C(O)CCCCC(=O)C(=O)O; test: E1a-specific DCPIP reduction assay (Km, kcat); format: biochemical, Homo sapiens; conditions: ThDP, Mg2+ active center; decarboxylated to the E1a-ThDP-enamine intermediate
[6] = substrate: O=C(O)CCCC(=O)C(=O)O; test: E1a-specific DCPIP reduction assay (Km, kcat); format: biochemical, Homo sapiens; conditions: ThDP, Mg2+ active center; decarboxylated to the E1a-ThDP-enamine intermediate
[7] = substrate: O=C(O)CCCC(=O)C(=O)O; test: E1a-specific DCPIP reduction assay (Km); format: biochemical, Homo sapiens; conditions: ThDP, Mg2+

Question: Which Kd [1] does the source give for “Arg715Cys E1a variant of human 2-oxoadipate dehydrogenase (enzyme)” here?
Answer: Its Kd is 1.13 µM.

Question: What about the relative amount of E1a among the components co-purified as OADHc (band intensity in PAGE) [2] of the same molecule?
Answer: Its relative amount of E1a among the components co-purified as OADHc (band intensity in PAGE) is 7.7%.

Question: What about the relative amount of E1a among the components co-purified as OADHc (band intensity in PAGE) [3] of the same molecule?
Answer: Its relative amount of E1a among the components co-purified as OADHc (band intensity in PAGE) is 7.7%.

Question: Which Kd [4] does the source give for “E1a (2-oxoadipate dehydrogenase) (from UniProt Q96HY7)” here?
Answer: Its Kd is 1.12 µM.

Question: Which results are given for “human 2-oxoadipate dehydrogenase (E1a), wild type (enzyme)”?
Answer: relative amount of E1a among the components co-purified as OADHc (band intensity in PAGE) [2]: 46%; relative amount of E1a among the components co-purified as OADHc (band intensity in PAGE) [3]: 46%

B1: 2-oxoadipate dehydrogenase (E1a) (Homo sapiens) (protein)
chain: GYQTERGVYGYRPRKPESREPQGALERPPVDHGLARLVTVYCEHGHKAAKINPLFTGQALLENVPEIQALVQTLQGPFHTAGLLNMGKEEASLEEVLVYLNQIYCGQISIETSQLQSQDEKDWFAKRFEELQKETFTTEERKHLSKLMLESQEFDHFLATKFSTVKRYGGEGAESMMGFFHELLKMSAYSGITDVIIGMPHRGRLNLLTGLLQFPPELMFRKMRGLSEFPENFSATGDVLSHLTSSVDLYFGAHHPLHVTMLPNPSHLEAVNPVAVGKTRGRQQSRQDGDYSPDNSAQPGDRVICLQVHGDASFCGQGIVPETFTLSNLPHFRIGGSVHLIVNNQLGYTTPAERGRSSLYCSDIGKLVGCAIIHVNGDSPEEVVRATRLAFEYQRQFRKDVIIDLLCYRQWGHNELDEPFYTNPIMYKIIRARKSIPDTYAEHLIAGGLMTQEEVSEIKSSYYAKLNDHLNNMAHYRPPALNLQAHWQGLAQPEAQITTWSTGVPLDLLRFVGMKSVEVPRELQMHSHLLKTHVQSRMEKMMDGIKLDWATAEALALGSLLAQGFNVRLSGQDVGRGTFSQRHAIVVCQETDDTYIPLNHMDPNQKGFLEVSNSPLSEEAVLGFEYGMSIESPKLLPLWEAQFGDFFNGAQIIFDTFISGGEAKWLLQSGIVILLPHGYDGAGPDHSSCRIERFLQMCDSAEEGVDGDTVNMFVVHPTTPAQYFHLLRRQMVRNFRKPLIVASPKMLLRLPAAVSTLQEMAPGTTFNPVIGDSSVDPKKVKTLVFCSGKHFYSLVKQRESLGAKKHDFAIIRVEELCPFPLDSLQQEMSKYKHVKDHIWSQEEPQNMGPWSFVSPRFEKQLACKLRLVGRPPLPVPAVGIGTVHLHQHEDILAKTFA
notes: C-terminally His6-tagged E1a
Question: Which Km [5] does the source give for B1 here?
Answer: The Km was 37 µM.

Question: And the Km [6]?
Answer: Its Km is 4.9 µM.

B2: 2-oxoadipate dehydrogenase (E1a) (Homo sapiens; Q305H) (protein)
chain: B1 chain with Q283H
notes: C-terminally His6-tagged E1a variant
Question: Which Km [7] does the source give for B2 here?
Answer: The Km was 5 µM.

B3: 2-oxoadipate dehydrogenase (E1a) (Homo sapiens; R455Q) (protein)
chain: B1 chain with R433Q
notes: as for B2
Question: For B3, which Km [7] is on record?
Answer: The Km was 3.5 µM.

B4: 2-oxoadipate dehydrogenase (E1a) (Homo sapiens; P773L) (protein)
chain: B1 chain with P751L
Question: Which Km [7] does the source give for B4 here?
Answer: The Km was 6 µM.
